Test results taken from PMC3570234 (Molecular pharmaceutics, 2012).

Biological target: the molecule itself
Test: MALDI-ToF MS

B1: Superoxide dismutase 1 (SOD1) from bovine erythrocytes (enzyme)
chain: not shown
binding result: binds
